Experimental findings from patent US20180353567A1 (THOMAS JEFFERSON UNIVERSITY, published 2018) are described below.

Experiment [1] concerns the target β2AR-Renilla Reniformus luciferase II fusion (UniProt P07550 1-413). The experiment can be described thus: cell-based or functional assay.
The target of another experiment is FLAG-β2AR (UniProt P07550 1-413, limits assumed). The experiment can be described thus: cell-based or functional assay.

B1: ICL1-4 (peptide)
peptide: VITAIAKFERLQTVTN
HELM: PEPTIDE1{[CCCCCCCCCCCCCCCC(=O)[*:2]].V.I.T.A.I.A.K.F.E.R.L.Q.T.V.T.N.[am]}$$$$V2.0
SMILES: CCCCCCCCCCCCCCCC(=O)N[C@H](C(=O)N[C@H](C(=O)N[C@H](C(=O)N[C@@H](C)C(=O)N[C@H](C(=O)N[C@@H](C)C(=O)N[C@@H](CCCCN)C(=O)N[C@@H](Cc1ccccc1)C(=O)N[C@@H](CCC(=O)O)C(=O)N[C@@H](CCCNC(=N)N)C(=O)N[C@@H](CC(C)C)C(=O)N[C@@H](CCC(N)=O)C(=O)N[C@H](C(=O)N[C@H](C(=O)N[C@H](C(=O)N[C@@H](CC(N)=O)C(N)=O)[C@@H](C)O)C(C)C)[C@@H](C)O)[C@@H](C)CC)[C@@H](C)O)[C@@H](C)CC)C(C)C
Turning to B1, the “EC50 of β-arrestin2 recruitment to the β2AR (BRET)” value (shortened to “EC50 of β-arrestin2 recruitment”) in experiment [1] came out at 1.9 µM.

B2: ICL1-11 (peptide)
peptide: TAIAKFERLQTVTNYF
HELM: PEPTIDE1{[CCCCCCCCCCCCCCCC(=O)[*:2]].T.A.I.A.K.F.E.R.L.Q.T.V.T.N.Y.F.[am]}$$$$V2.0
SMILES: CCCCCCCCCCCCCCCC(=O)N[C@H](C(=O)N[C@@H](C)C(=O)N[C@H](C(=O)N[C@@H](C)C(=O)N[C@@H](CCCCN)C(=O)N[C@@H](Cc1ccccc1)C(=O)N[C@@H](CCC(=O)O)C(=O)N[C@@H](CCCNC(=N)N)C(=O)N[C@@H](CC(C)C)C(=O)N[C@@H](CCC(N)=O)C(=O)N[C@H](C(=O)N[C@H](C(=O)N[C@H](C(=O)N[C@@H](CC(N)=O)C(=O)N[C@@H](Cc1ccc(O)cc1)C(=O)N[C@@H](Cc1ccccc1)C(N)=O)[C@@H](C)O)C(C)C)[C@@H](C)O)[C@@H](C)CC)[C@@H](C)O
For the molecule B2, the “cAMP production in HEK293 cells stably overexpressing FLAG-β2AR” value in the experiment with FLAG-β2AR is ~2 fold increase over vehicle. Moreover, the “EC50 of β-arrestin2 recruitment” value in experiment [1] is 1.7 µM.

B3: ICL1-20 (peptide)
peptide: LVITAIAKFERLQTVT
HELM: PEPTIDE1{[CCCCCCCCCCCCCCCC(=O)[*:2]].L.V.I.T.A.I.A.K.F.E.R.L.Q.T.V.T.[am]}$$$$V2.0
SMILES: CCCCCCCCCCCCCCCC(=O)N[C@@H](CC(C)C)C(=O)N[C@H](C(=O)N[C@H](C(=O)N[C@H](C(=O)N[C@@H](C)C(=O)N[C@H](C(=O)N[C@@H](C)C(=O)N[C@@H](CCCCN)C(=O)N[C@@H](Cc1ccccc1)C(=O)N[C@@H](CCC(=O)O)C(=O)N[C@@H](CCCNC(=N)N)C(=O)N[C@@H](CC(C)C)C(=O)N[C@@H](CCC(N)=O)C(=O)N[C@H](C(=O)N[C@H](C(=O)N[C@H](C(N)=O)[C@@H](C)O)C(C)C)[C@@H](C)O)[C@@H](C)CC)[C@@H](C)O)[C@@H](C)CC)C(C)C
Take B3: the “EC50 of β-arrestin2 recruitment” value in experiment [1] was 1.1 µM.
